Data on 4 molecules can be found in patent US20020177180A1, “pH-indicator based assay for selective enzymes” (ThermoGen, Inc., priority 1998, published 2002).

Holding throughout (assay type): biochemical
Series [1] is described as follows: pH-indicator (4-nitrophenol/BES) microplate screening of commercial hydrolases, initial rates of hydrolysis. Conditions: for Activity (R): (R)-solketal butyrate 1.0 mM; for Activity (R) / Activity (S) / Activity (±): pH 7.2, 7.1% acetonitrile, 25° C.; for Activity (S): (S)-solketal butyrate 1.0 mM; for Activity (±): (±)-solketal butyrate 1.0 mM, specific activity; for Estimated E: without Triton X-100. How it is done:
The hydrolases were dissolved in BES buffer (5.0 mM, pH 7.2) at the concentrations listed in Table 1 (0.5-40 mg solid/mL solution). […] CaCl2 (2 mM) was added to the protease solutions since some proteases require calcium ions to maintain their structure. For hydrolase samples with low protein content, saturated solutions (up to 40 mg solid/ml) were utilized for hydrolase samples and with high protein content were utlized, lower concentrations (typically, 1 mg solid/ml) were utilized. Each solution was centrifuged to remove insoluble material (5 min, 2,000 rpm) and titrated to a final pH of 7.2. The protein concentrations were determined using a dye-binding assay from Bio-Rad (Mississauga, ON) with bovine serum albumin (BSA) as the standard. Solutions were stored in a 96-well assay block ‘mother plate’ equipped with aluminum sealing tape (2 mL maximum volume in each well, Corning Costar, Acton, Mass.) at −20° C.
Hydrolase solutions (5 μL/well) were transferred from the mother plate to a 96-well microtiter plate using an 8-channel pipette. Assay solution (100 μL/well) was quickly added to each well using a 1,200 μL 8-channel pipette. The final concentrations in each well were 1.0 mM substrate, 4.65 mM BES, 0.434 mM 4-nitrophenol, 7.1% acetonitrile. The plate was quickly placed in the microplate reader, shaken for 10 s to ensure complete mixing and the decrease in absorbance at 404 nm was monitored at 25° C. as often as permitted by the microplate software, typically every 11 seconds. […] Data were collected for one hour to ensure slow reactions and reactions with a lag time were detected. Each hydrolysis was carried out in quadruplicate and was averaged. […] For this reason. the first 10 s of data was typically deleted from the calculation of the initial rate. Activities were calculated from slopes in the linear portion of the curve usually over the first two hundred seconds. […] To calculate specific activity (μmol/min/mg protein), the total amount of protein in each well was taken into account.
The assay was used to screen for enantioselective hydrolases in 96-well microplates. Using pure enantiomers, the initial rates of hydrolysis of each enantiomer of solketal butyrate was measured separately. […] Note that the ratio of separately measured initial rates of hydrolysis of the enantiomers is not the true enantioselectivity, so this screening provides only an estimated enantioselectivity. The true enantioselectivity is the ratio of the specificity constants (kcat/KM) for each enantiomer. By measuring initial rates of the enantiomers separately, competitive binding between the two enantiomers was eliminated. At saturating substrate conditions, the relative initial rates equal the relative kcat values; at partially saturating conditions, the initial rates also depend on the KM values. Thus, the ratio of separately measured initial rates ignores some or all of the effect of KM on enantioselectivity. In spite of this inaccuracy, the relative initial rate provides an estimated enantioselectivity.

A short description of series [2]: Quick E of chromogenic ester with resorufin tetradecanoate reference. Conditions: substrate 1. The protocol:
To reintroduce competition, resorufin tetradecanoate was added as a reference compound, FIG. 7. The initial rates of hydrolysis of (S)-1 were monitored at 404 nm and the reference compound at 572 nm in the same solution. After taking into account the initial concentrations of both substrates, the ratio of these rates yielded the selectivity of the hydrolase for (S)-1 over the reference compound, Eq 8.
A second experiment using (R)-1 and the reference compound yielded the selectivity of (R)-1 over the reference compound. The ratio of these two selectivities yields the enantiomeric ratio, Eq. 9.
Substrate solutions were the same as for separately measured initial rate measurements, but a solution of resorufin tetradecanaote 6 (0.5 mL of a 1.59 mM solution in acetonitrile) was added slowly to the vortexing solutions of pure enantiomers. It was necessary to use a 2-fold increase in the concentration of Triton X-100 to solubilize resorufin tetradecanoate. The emulsions remained clear for at least 2 hours. To measure the initial rates of hydrolysis, lipase solutions from Table 4 (100 μL) was added to the substrate emulsion (900 μL) in a cuvette at 25° C. and the linear increase in absorbances at 404 nm and 574 nm were monitored for 15 s. Rates are calculated in μmol/min/mg protein after taking into account the amount of protein in each cuvette. […] No spontaneous chemical hydrolysis was detected at 404 nm or 574 nm.

Series [3] in a line: Separately measured initial rates of chromogenic esters (404 nm), estimated E. To be noted: substrate 1. The protocol: The initial rates of hydrolysis of 4-nitrophenyl esters of pure enantiomers were determined to quickly estimate the enantioselectivity of several lipases towards three common chiral carboxylic acids: 2-phenylpropanoic acid, p-nitro phenyl ester (or, 4-nitrophenyl 2-phenylpropanoate), 1; 2-(4-isobutylphenyl)propanoic acid (commercially available as Ibuprofen), 2; and phenylalanine, 3, FIG. 5. The rates of hydrolysis of 4-nitrophenyl esters were conveniently determined spectrophotometrically by monitoring the rate of release of 4-nitrophenoxide anion at 404 nm, FIG. 6. The ratio of separately measured initial rates of hydrolysis estimated the enantioselectivity. The quick E of phenylalanine, 3, was not measured because of its instability in aqueous solution.
Separately measured initial rates of chromogenic esters. 4-nitrophenyl esters of 2- phenylpropanoic acid, 1, and 2-(4-isobutylphenyl)propanoic acid, 2, were emulsified in aqueous solutions according to Vorderwuibecke. A solution of (R) or (S)-4-nitrophenyl-esster (500 μL of a 7.8 mM solution in acteonitrile) was added dropwise to Tris buffer (9000 μL, 50 mM, pH 7.5) containing 0.45 w/v % Triton X-100 (Pierce Surfact-Amps) and vortexed until clear. This emulsion remained clear for at least 3 hours. To measure the initial rates of hydrolysis, lipase solutions from Table 3 (100 μL) were added to the substrate emulsion (900 μL) in a cuvette at 25° C. and the linear increase in absorbance at 404 nm was monitored for 15 s. The final concentrations in the cuvettes were 0.369 mM substrate, 0.39% Triton X-100, 45 mM Tris buffer, 4.76% acetonitrile. No spontaneous chemical hydrolysis was detected. Solutions of 4-nitrophenyl esters of phenylalanine, 3, in acetonitrile (5 IL of a 50 mM solution in acetonitrile) were added to HEPES buffer (1000 μL, 10 mM , pH 7.5). To measure the rates of hydrolysis, 5 μL of ANL solution was added and the change in absorbance monitored as above.

Series [4] in a line: Endpoint method: small-scale enzyme-catalyzed hydrolysis, ee by HPLC, true E. To be noted: substrate 1.
The nature of series [5]: pH-indicator screening under interfacial activation conditions (Triton X-100). To be noted: 2.8 mM Triton X-100 in the wells. The protocol:
The procedure was the same as above except that the BES buffer (5 mM, pH 7.2) contained Triton-X 100 (8.45 mM). Final concentration of Triton X-100 in the wells was 2.8 mM.
The reaction conditions in the assay were altered in an attempt to increase the estimated enantioselectivity toward solketal butyrate. For example, the activity of hydrolases, especially lipases, often increases in the presence of an interface. It was reasoned that this interfacial activation may also change the enantioselectivity. The hydrolase library was screened with Triton X-100 (a non-ionic detergent) added to create micelles. The reaction rates increased for eight hydrolases (three lipases and five esterases), decreased for thirty-two hydrolases, and stayed constant for twelve hydrolases. Unfortunately, the estimated enantioselectivities remained unchanged or decreased slightly for the best hydrolases: AOP (decrease from 4.9 to 4.2), ROL (decrease from 11.3 to 9.6), HLE (decrease from 12.2 to 7.6), BSP (decrease from 7.3 to 5.4). […] For example, subtilisin Carlsberg increased from 2.6 to 2.8, esterase from Bacillus stearothermophilus increased from 1.7 to 2.4 and Aspergillus oryzae lipase decreased from 4.95 to 1.8.

[6] abbreviates: ratio of separately measured initial rates of the enantiomers.
[7] abbreviates: 0.37 mM substrate, 0.38% Triton X-100, 45.2 mM Tris Buffer, 4.76% acetonitrile.

B1: Themsolysin, Type X: commercial protease (protein, UniProt P00800 233-548, looked up)
Thermolysin: ITGTSTVGVGRGVLGDQKNINTTYSTYYYLQDNTRGNGIFTYDAKYRTTLPGSLWADADNQFFASYDAPAVDAHYYAGVTYDYYKNVHNRLSYDGNNAAIRSSVHYSQGYNNAFWNGSQMVYGDGDGQTFIPLSGGIDVVAHELTHAVTDYTAGLIYQNESGAINEAISDIFGTLVEFYANKNPDWEIGEDVYTPGISGDSLRSMSDPAKYGDPDHYSKRYTGTQDNGGVHINSGIINKAAYLISQGGTHYGVSVVGIGRDKLGKIFYRALTQYLTPTSNFSQLRAAAVQSATDLYGSTSQEVASVKQAFDAVGVK
Regarding B1, in series [1], the “Activity (R)” value turned out to be 0.255 μmol/min/mg protein, the “Activity (S)” value is on record as 0.738 μmol/min/mg protein, the “Activity (±)” value is 0.095 μmol/min/mg protein and the “Estimated E” value is on record as 5. For the same molecule, the “Estimated E” value in series [1] (setting [6]) is 2.89.

B2: Porcine pancreas: commercial lipase from porcine pancreas (protein, UniProt P00591 1-450, looked up)
Pancreatic triacylglycerol …: SEVCFPRLGCFSDDAPWAGIVQRPLKILPWSPKDVDTRFLLYTNQNQNNYQELVADPSTITNSNFRMDRKTRFIIHGFIDKGEEDWLSNICKNLFKVESVNCICVDWKGGSRTGYTQASQNIRIVGAEVAYFVEVLKSSLGYSPSNVHVIGHSLGSHAAGEAGRRTNGTIERITGLDPAEPCFQGTPELVRLDPSDAKFVDVIHTDAAPIIPNLGFGMSQTVGHLDFFPNGGKQMPGCQKNILSQIVDIDGIWEGTRDFVACNHLRSYKYYADSILNPDGFAGFPCDSYNVFTANKCFPCPSEGCPQMGHYADRFPGKTNGVSQVFYLNTGDASNFARWRYKVSVTLSGKKVTGHILVSLFGNEGNSRQYEIYKGTLQPDNTHSDEFDSDVEVGDLQKVKFIWYNNNVINPTLPRVGASKITVERNDGKVYDFCSQETVREEVLLTLNPC
For B2, the “(R)-enantiomer + ref, rate 404 nm” value in series [2] (0.351 mM (R)-ester + 0.071 mM resorufin tetradecanoate, Tris pH 8, 25°) is reported as 0.000659 μmol/min/mg protein. Further, the “(S)-enantiomer + ref, rate 404 nm” value in series [2] (0.351 mM (S)-ester + 0.071 mM resorufin tetradecanoate, Tris pH 8, 25°) is listed as 0.00105 μmol/min/mg protein. Moreover, the “Quick E” value in series [2] (error = standard deviation for 3 measurements) amounted to 1.4 ± 0.2. For the same molecule, the “(R)-enantiomer + ref, rate 574 nm” value in series [2] (reference hydrolysis in presence of (R)-ester) worked out at 0.00437 μmol/min/mg protein. In series [2] (reference hydrolysis in presence of (S)-ester), the “(S)-enantiomer + ref, rate 574 nm” value came to 0.000495 μmol/min/mg protein. In series [3] (setting [7]), the “Initial Rate (R)” value is recorded as 0.00403 μmol/min/mg protein and the “Initial Rate (S)” value is recorded as 0.0059 μmol/min/mg protein. Besides, in series [3] (ratio of separately measured initial rates), the “Estimated E” value is reported as 1.4 ± 0.1. Besides, in series [4], the C was 4.0 and the eep worked out at 2.0. The “Endpoint E” value in series [4] (Tris buffer pH 8.0, room temperature) is 1.1 ± 0.1.

B3: Proteinase K: commercial protease (protein, UniProt P06873 106-384, looked up)
Proteinase K: AAQTNAPWGLARISSTSPGTSTYYYDESAGQGSCVYVIDTGIEASHPEFEGRAQMVKTYYYSSRDGNGHGTHCAGTVGSRTYGVAKKTQLFGVKVLDDNGSGQYSTIIAGMDFVASDKNNRNCPKGVVASLSLGGGYSSSVNSAAARLQSSGVMVAVAAGNNNADARNYSPASEPSVCTVGASDRYDRRSSFSNYGSVLDIFGPGTSILSTWIGGSTRSISGTSMATPHVAGLAAYLMTLGKTTAASACRYIADTANKGDLSNIPFGTVNLLAYNNYQA
Consider B3, for which, in series [1], the “Activity (R)” value is 3.08 μmol/min/mg protein, the “Activity (S)” value turned out to be 2.29 μmol/min/mg protein and the “Activity (±)” value was 2.14 μmol/min/mg protein. Moreover, the “Estimated E” value in series [1] (setting [6]) is listed as 1.24.

B4: Subtilisin Carlsberg: commercial protease (protein, UniProt P00780 106-379, looked up)
Subtilisin Carlsberg: AQTVPYGIPLIKADKVQAQGFKGANVKVAVLDTGIQASHPDLNVVGGASFVAGEAYNTDGNGHGTHVAGTVAALDNTTGVLGVAPSVSLYAVKVLNSSGSGSYSGIVSGIEWATTNGMDVINMSLGGASGSTAMKQAVDNAYAKGVVVVAAAGNSGSSGNTNTIGYPAKYDSVIAVGAVDSNSNRASFSSVGAELEVMAPGAGVYSTYPTNTYATLNGTSMASPHVAGAAALILSKHPNLSASQVRNRLSSTATYLGSSFYYGKGLINVEAAAQ
With B4, in series [1], the “Activity (R)” value is 0.213 μmol/min/mg protein, the “Activity (S)” value is reported as 0.082 μmol/min/mg protein and the “Activity (±)” value is on record as 0.083 μmol/min/mg protein. Besides, in series [1] (setting [6]), the “Estimated E” value is 2.60. Besides, in series [1] (ratio of separately measured initial rates of the enantiomers, listed as subtilisin Carlsberg), the “Estimated E” value is on record as 2.6. Also, in series [5], the “estimated enantioselectivity with Triton X-100” value is listed as 2.8.
